Assay results taken from patent publication US9493781B2, “Synthetic brassica-derived chloroplast transit peptides” (DOW AGROSCIENCES LLC, priority 2012, dated 2016).

Legend:
Arabidopsis [1] = test: Heritability progeny test of T1 families (T2 plants) with glufosinate, Arabidopsis; type: in vivo, Arabidopsis thaliana; conditions: progeny test of 100 T2 plants, glufosinate 200 g ae/ha
Source text: Heritability. Confirmed transgenic T1 Arabidopsis events were self-pollinated to produce T2 seed. These seed were progeny tested by applying Ignite™ herbicide containing glufosinate (200 g ae/ha) to 100 random T2 siblings. […] The T1 families (T2 plants) segregated in the anticipated 3 Resistant: 1 Sensitive model for a dominantly inherited single locus with Mendelian inheritance as determined by Chi square analysis (P>0.05). […] Seed were collected from 5 to 15 T2 individuals (T3 seed). Twenty-five T3 siblings from each of 3-4 randomly-selected T2 families were progeny tested as previously described.

Arabidopsis [2] = test: dgt-28, dgt-32, dgt-33, dgt-3, dgt-7 transformed Arabidopsis (T1, T2, T3) response to postemergence glyphosate, % visual injury; type: in vivo, Arabidopsis thaliana; conditions: 14 days after application
Source text: Transgenic T1 Arabidopsis plants containing the dgt-28 transgene were sprayed with differing rates of glyphosate. Elevated rates were applied in this study to determine the relative levels of resistance (105, 420, 1,680 or 3,360 g ae/ha). A typical 1× usage rate of glyphosate that will control non-transformed Arabidopsis is 420 g ae/ha. […] The T1 Arabidopsis plants that were used in this study were variable copy number for the dgt-28 transgene. The low copy dgt-28 T1 Arabidopsis plants were self-pollinated and used to produce T2 plants.
Results of Glyphosate Selection of Transformed dgt-28 Arabidopsis Plants. The Arabidopsis T1 transformants were first selected from the background of untransformed seed using a glufosinate selection scheme. Three flats or 30,000 seed were analyzed for each T1 construct. The T1 plants selected above were molecularly characterized and representative plants with variable copy number were subsequently transplanted to individual pots and sprayed with various rates of commercial glyphosate as previously described. The response of these plants is presented in terms of % visual injury 2 weeks after treatment (WAT). […] An arithmetic mean and standard deviation is presented for each construct used for Arabidopsis transformation. The range in individual response is also indicated in the last column for each rate and transformation. Wild-type, non-transformed Arabidopsis (c.v. Columbia) served as a glyphosate sensitive control.
T2Arabidopsis Data. The second generation plants (T2) of selected T1 Arabidopsis events which contained low copy numbers of the dgt-28 transgene were further characterized for glyphosate tolerance. Glyphosate was applied as described previously. The response of the plants is presented in terms of % visual injury 2 weeks after treatment (WAT). […] An arithmetic mean and standard deviation are presented for each construct used for Arabidopsis transformation. The range in individual response is also indicated in the last column for each rate and transformation. Wild-type, non-transformed Arabidopsis (cv. Columbia) served as a glyphosate sensitive control. In the T2 generation hemizygous and homozygous plants were available for testing for each event and therefore were included for each rate of glyphosate tested. Hemizygous plants contain two different alleles at a locus as compared to homozygous plants which contain the same two alleles at a locus. Variability of response to glyphosate is expected in the T2 generation as a result of the difference in gene dosage for hemizygous as compared to homozygous plants. The variability in response to glyphosate is reflected in the standard deviation and range of response.
T3 Arabidopsis Data. The third generation plants (T3) of selected T2 Arabidopsis events which contained low copy numbers of the dgt-28 transgene were further characterized for glyphosate tolerance. […] Glyphosate was applied as described previously. The response of the plants is presented in terms of % visual injury 2 weeks after treatment (WAT). […] An arithmetic mean and standard deviation are presented for each construct used for Arabidopsis transformation. The range in individual response is also indicated in the last column for each rate and transformation. Wild-type, non-transformed Arabidopsis (cv. Columbia) served as a glyphosate-sensitive control.

[3] = Table 8, T1 Arabidopsis, 105 g ae/ha glyphosate
[4] = Table 8, T1 Arabidopsis, 420 g ae/ha glyphosate
[5] = Table 8, T1 Arabidopsis, 1680 g ae/ha glyphosate
[6] = Table 8, T1 Arabidopsis, 3360 g ae/ha glyphosate
[7] = Table 10, T1 Arabidopsis, 1,680 g ae/ha glyphosate
[8] = Table 12, T2 Arabidopsis, 1 copy, 420 g ae/ha glyphosate
[9] = Table 12, T2 Arabidopsis, 1 copy, 840 g ae/ha glyphosate
[10] = Table 12, T2 Arabidopsis, 1 copy, 1680 g ae/ha glyphosate
[11] = Table 12, T2 Arabidopsis, 1 copy, 3360 g ae/ha glyphosate

B1: pDAB105531: TraP8 v2 -- dgt-28 v5: binary construct TraP8 v2: dgt-28 v5 (SEQ ID NO:34) (nucleic acid)
DNA: ATGGCTCAATCTAGCAGAATCTGCCACGGTGTGCAGAACCCATGTGTGATCATTTCCAATCTCTCCAAATCCAACCAGAACAAATCTCCTTTCTCAGTCAGCCTCAAGACTCACCAGCAGCAGCGTCGTGCTTACCAGATATCTAGCTGGGGATTGAAGAAGTCAAACAACGGGTCCGTGATTCGTCCGGTTAAGGCAGCAAGAGGGATGCCAGCCTTGTCTTTACCTGGATCAAAGAGTATCACAGCTAGGGCACTCTTTCTTGCTGCTGCTGCTGATGGGGTTACTACTTTGGTGAGGCCATTGAGAAGTGACGACACAGAAGGATTCGCTGAGGGGTTAGTTCGTTTAGGCTATCGTGTAGGGAGGACACCCGATACTTGGCAAGTCGATGGCAGACCACAAGGACCAGCAGTGGCTGAGGCTGACGTCTACTGTAGAGACGGAGCAACCACCGCTAGATTCTTGCCAACCTTAGCAGCTGCTGGTCACGGAACATACAGATTTGATGCTTCACCACAGATGAGGAGACGTCCTCTTTTGCCCTTAAGCAGAGCCTTGAGGGATTTGGGTGTCGATCTTAGACACGAAGAAGCTGAAGGTCATCACCCTCTGACTGTCCGTGCTGCTGGGGTTGAAGGAGGAGAGGTTACTTTGGATGCTGGTCAGTCAAGTCAGTATCTCACTGCCTTGTTGCTCCTTGGTCCCCTTACAAGACAAGGACTGAGGATAAGGGTTACTGATTTGGTGTCAGCACCATACGTGGAGATTACGCTTGCAATGATGAGGGCTTTCGGAGTTGAAGTGGCAAGGGAGGGAGATGTGTTCGTTGTTCCACCTGGTGGATATCGTGCAACTACGTATGCTATAGAACCCGACGCAAGTACTGCTTCTTACTTCTTCGCAGCTGCTGCTTTGACTCCTGGAGCTGAAGTGACTGTACCTGGGTTAGGCACGGGAGCACTTCAAGGAGATTTGGGATTTGTAGATGTCTTAAGGAGAATGGGAGCCGAGGTGTCCGTAGGAGCTGATGCAACCACTGTTAGAGGAACTGGTGAATTGCGTGGCCTTACAGCCAACATGAGAGACATAAGTGATACGATGCCGACCCTCGCTGCAATAGCACCCTTTGCTAGTGCTCCAGTTAGAATCGAGGATGTTGCCAACACTCGTGTCAAAGAATGTGACAGACTTGAGGCTTGTGCAGAGAACCTTAGGAGGTTGGGAGTAAGGGTTGCAACGGGTCCGGACTGGATTGAGATACACCCTGGTCCAGCTACTGGTGCTCAAGTCACAAGCTATGGTGATCACAGAATTGTGATGTCATTTGCAGTGACTGGACTTCGTGTGCCTGGGATCAGCTTCGACGACCCTGGCTGTGTTCGTAAGACTTTTCCTGGGTTTCACGAGGCTTTCGCAGAATTGAGGCGTGGCATTGGGAGCTGA
modifications: In-frame fusion of dgt-28 v5 and TraP8 v2
Arabidopsis [1]
  T1 Families Tested Segregating at 1 Locus (%): 100%
Arabidopsis [2]; [3]
  % Injury Ave: 10.8%
  % Injury Range (%): 0-25%
  No. plants with 20-40% injury: 1
  No. plants with <20% injury: 3
  No. plants with >40% injury: 0
Arabidopsis [2]; [4]
  % Injury Ave: 22.8%
  % Injury Range (%): 8-50%
  No. plants with 20-40% injury: 0
  No. plants with <20% injury: 3
  No. plants with >40% injury: 1
Arabidopsis [2]; [5]
  % Injury Ave: 5.3%
  % Injury Range (%): 0-8%
  No. plants with 20-40% injury: 0
  No. plants with <20% injury: 4
  No. plants with >40% injury: 0
Arabidopsis [2]; [6]
  % Injury Ave: 29.3%
  % Injury Range (%): 22-35%
  No. plants with 20-40% injury: 4
  No. plants with <20% injury: 0
  No. plants with >40% injury: 0
Arabidopsis [2]; [7]
  % Injury Ave: 5.3%
  % Injury Range (%): 0-8%
  No. plants with 20-40% injury: 0
  No. plants with <20% injury: 4
  No. plants with >40% injury: 0
Arabidopsis [2]; [8]
  % Injury Ave: 0.5%
  % Injury Range (%): 0-2%
  No. plants with 20-40% injury: 0
  No. plants with <20% injury: 4
  No. plants with >40% injury: 0
Arabidopsis [2]; [9]
  % Injury Ave: 1.3%
  % Injury Range (%): 0-5%
  No. plants with 20-40% injury: 0
  No. plants with <20% injury: 4
  No. plants with >40% injury: 0
Arabidopsis [2]; [10]
  % Injury Ave: 7.5%
  % Injury Range (%): 5-15%
  No. plants with 20-40% injury: 0
  No. plants with <20% injury: 4
  No. plants with >40% injury: 0
Arabidopsis [2]; [11]
  % Injury Ave: 7.5%
  % Injury Range (%): 0-15%
  No. plants with 20-40% injury: 0
  No. plants with <20% injury: 4
  No. plants with >40% injury: 0
